Consider twelve substances from patent US20250199010A1.

Assay [1] addresses Mouse EGFR-Fc (mouse) (UniProt Q01279). As to the kind of experiment: SPR, murine EGFR-Fc. (SPR reads the build-up and loss of mass on a sensor chip optically.)
The target in assay [2] is Human EGFR-Fc (human) (UniProt P00533). As to the kind of experiment: SPR (Biacore), 37 °C.
Assay [3] addresses human EGFR-Fc mutant (L325V, S340A) (human) (UniProt P00533). As to the kind of experiment: SPR (Biacore), 37 °C.
Assay [4] shares this target. As to the kind of experiment: SPR, human EGFR-Fc (L325V, S340A).
The target in assay [5] is Mouse EGFR-Fc (mouse) (UniProt Q01279). As to the kind of experiment: SPR, murine EGFR-Fc; bracket from the bars of 7D12 and 9G8 to this bar.
Assay [6] has the same target. As to the kind of experiment: SPR (Biacore), 25 °C.
Assay [7] addresses Human EGFR-Fc (human) (UniProt P00533). As to the kind of experiment: yeast surface display titration with human EGFR (panel Yeast display: HuL6-7D12).
For assay [8], the target named is Mouse EGFR-Fc (mouse) (UniProt Q01279). As to the kind of experiment: SPR, 25 °C.

As to 7D12-FFH-(EAAAK)6-GGG-[-AA]9G8, the Kd – broadly, a measure of binding affinity in units of concentration – in assay [1] came out at 8.8 nM.

Regarding 9G8 (VHH), the dissociation constant Kd turned out to be 3.8 nM in assay [2] and 13 nM in assay [3].

With 7D12-(E4K4)5-9G8, the Kd was found to be 2 nM in assay [4] and 621 nM in assay [1].

With 7D12-(AP)12-9G8, the dissociation constant Kd amounted to 0.6 nM in assay [4] and 192 nM in assay [1]. In addition, the k' in assay [5] was determined as 950000.

For 7D12-WMV-(GGGS)6-VTG-[-AA]9G8, the Kd in assay [4] came to 0.04 nM; in assay [1], 1.2 nM.

7D12-(EAAAK)8-VSG-[-AA]9G8: the Kd in assay [1] amounted to 1.2 nM.

Consider 7D12-(GGGS)3-9G8, for which the Kd in assay [1] stood at 162 nM.

In assay [1], 7D12-(EAAAK)8-9G8 registered a dissociation constant (Kd) of 194 nM.

In assay [1], 7D12-SSV-(E4K4)4-GPG-[-AA]9G8 yielded a Kd of 3.1 nM.

Regarding 7D12-(AP)12-VSG-[-AA]9G8, the equilibrium dissociation constant (Kd) amounted to 0.04 nM in assay [4] and 0.7 nM in assay [1].

7D12-KGR-(EAAAK)8-AGG-[-AA]9G8 returned an equilibrium dissociation constant (Kd) in assay [1] of 17 nM.

As to 7D12 (VHH), the equilibrium dissociation constant (Kd) in assay [6] was determined as 7200 nM; in assay [7], 2.1 nM; in assay [8], 7200 nM; in assay [3], 210 nM.
